Assay results from paper PMC9197078, “The small nonstructural protein NP1 of human bocavirus 1 directly interacts with Ku70 and RPA70 and facilitates viral DNA replication” (PLoS Pathogens, 2022).

B1: glutathione S-transferase (GST)-tagged HBoV1 NP1 (GST-NP1) (natural protein)
chain: MSSGNMKDKHRSYKRKGSPERGERKRHWQTTHHRSRSRSPIRHSGERGSGSYHQEHPISHLSSCTASKTSDQVMKTRESTSGKKDNRTNPYTVFSQHRASNPEAPGWCGFYWHSTRIARDGTNSIFNEMKQQFQQLQIDNKIGWDNTRELLFNQKKTLDQKYRNMFWHFRNNSDCERCNYWDDVYRRHLANVSSQTEADEITDEEMLSAAESMEADASN
notes: also called pGST-NP1; source: E. coli BL21/DE3 pLysS, purified
B2: MBP-Ku70-β-barrel^His (aa266-439) (domain or fragment, UniProt P12956 266-439, looked up)
chain: DIVISVGIYNLVQKALKPPPIKLYRETNEPVKTKTRTFNTSTGGLLLPSDTKRSQIYGSRQIILEKEETEELKRFDDPGLMLMGFKPLVLLKKHHYLRPSLFVYPEESLVIGSSTLFSALLIKCLEKEVAALCRYTPRRNIPPYFVALVPQEEELDDQKIQVTPPGFQLVFLPF
notes: also called MBP-β-barrel^His; Ku70 β-barrel domain; source: E. coli BL21/DE3 pLysS, purified

Columns and labels:
Assay in all cases: BLI; BLItz; His-tagged protein at different concentrations mounted on Ni-NTA biosensors, dipped into 4 μM GST-NP1 or control GST^Flag; Kinetic buffer 50 mM Tris-HCl pH 7.4, 150 mM NaCl
Settings in all cases: both partners purified
[1] = molecular target: T1, hexahistidine (His)-tagged Ku70 (Ku70^His) (UniProt P12956 1-609)
T1 construct: also called full length Ku70; Ku70 monomer; source: E. coli BL21/DE3 pLysS, purified

RPA70^His = molecular target: T2, RPA70^His (UniProt P27694 1-616)
T2 construct: source: E. coli BL21/DE3 pLysS, purified

RPA70-AB^His (aa181-422) = molecular target: T3, RPA70-AB^His (aa181-422) (UniProt P27694 181-422)
T3 construct: also called middle AB domain; source: E. coli BL21/DE3 pLysS, purified

[2] = molecular target: B1

T1 sequence (P12956 whole entry): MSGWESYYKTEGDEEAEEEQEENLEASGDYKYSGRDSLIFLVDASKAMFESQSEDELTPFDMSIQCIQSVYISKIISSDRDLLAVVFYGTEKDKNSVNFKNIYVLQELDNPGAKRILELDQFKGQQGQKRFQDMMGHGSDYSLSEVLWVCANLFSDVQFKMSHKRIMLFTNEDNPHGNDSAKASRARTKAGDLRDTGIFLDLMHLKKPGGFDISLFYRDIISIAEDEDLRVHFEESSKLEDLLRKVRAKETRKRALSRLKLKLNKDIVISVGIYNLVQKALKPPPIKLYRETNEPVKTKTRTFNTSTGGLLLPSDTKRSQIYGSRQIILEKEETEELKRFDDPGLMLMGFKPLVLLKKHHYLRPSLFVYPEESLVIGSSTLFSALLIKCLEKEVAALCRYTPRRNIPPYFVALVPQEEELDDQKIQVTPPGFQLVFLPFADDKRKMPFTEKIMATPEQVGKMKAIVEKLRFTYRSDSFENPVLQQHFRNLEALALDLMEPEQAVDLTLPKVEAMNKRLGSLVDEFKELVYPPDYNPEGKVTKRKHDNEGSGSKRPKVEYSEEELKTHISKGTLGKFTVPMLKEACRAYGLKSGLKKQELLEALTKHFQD
T2 sequence (P27694 whole entry): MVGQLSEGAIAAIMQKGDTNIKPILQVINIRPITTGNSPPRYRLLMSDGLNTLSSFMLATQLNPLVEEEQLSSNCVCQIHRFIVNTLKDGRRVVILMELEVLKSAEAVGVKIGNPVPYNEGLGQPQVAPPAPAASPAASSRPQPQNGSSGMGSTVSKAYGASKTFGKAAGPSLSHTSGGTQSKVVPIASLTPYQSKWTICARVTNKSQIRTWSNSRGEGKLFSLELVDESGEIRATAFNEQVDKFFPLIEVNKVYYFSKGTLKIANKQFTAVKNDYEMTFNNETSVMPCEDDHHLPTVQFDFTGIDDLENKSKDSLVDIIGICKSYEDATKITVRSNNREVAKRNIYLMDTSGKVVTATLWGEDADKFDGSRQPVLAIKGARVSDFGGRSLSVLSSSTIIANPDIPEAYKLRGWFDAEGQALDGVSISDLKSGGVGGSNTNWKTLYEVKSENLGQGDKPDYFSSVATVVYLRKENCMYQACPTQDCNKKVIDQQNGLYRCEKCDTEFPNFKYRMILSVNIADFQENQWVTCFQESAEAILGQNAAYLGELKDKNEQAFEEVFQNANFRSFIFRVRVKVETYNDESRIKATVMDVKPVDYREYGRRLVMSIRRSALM
T3 sequence (P27694 181-422): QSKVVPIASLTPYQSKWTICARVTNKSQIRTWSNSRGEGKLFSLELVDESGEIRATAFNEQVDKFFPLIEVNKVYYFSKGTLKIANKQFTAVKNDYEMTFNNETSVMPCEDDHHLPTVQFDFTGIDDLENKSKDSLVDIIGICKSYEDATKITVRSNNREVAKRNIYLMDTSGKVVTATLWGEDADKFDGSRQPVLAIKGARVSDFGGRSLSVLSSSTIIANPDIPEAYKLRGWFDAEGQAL

B1
Kd [1]: 0.095 µM
Kd (RPA70^His): 0.122 µM
Kd (RPA70-AB^His (aa181-422)): 0.526 µM

B2
Kd [2]: 0.722 µM
